{"source": "paper PMC4920195", "about": "“Non-Smc element 5 (Nse5) of the Smc5/6 complex interacts with SUMO pathway components” (Biology Open, 2016)", "molecules": {"B1": {"name": "Smt3-AD (natural protein, S. cerevisiae, UniProt Q12306 1-101, looked up)", "chain": "MSDSEVNQEAKPEVKPEVKPETHINLKVSDGSSEIFFKIKKTTPLRRLMEAFAKRQGKEMDSLRFLYDGIRIQADQTPEDLDMEDNDIIEAHREQIGGATY", "notes": "Smt3 (SUMO) of Saccharomyces cerevisiae, SMT3 cloned into a pJG4-6-derived prey vector; also called SUMO; J-043; source: yeast two-hybrid fusion, galactose-inducible promoter, in S. cerevisiae"}, "B2": {"name": "Ubc9-AD (wild type) (enzyme, S. cerevisiae, UniProt P50623 1-157, looked up)", "chain": "MSSLCLQRLQEERKKWRKDHPFGFYAKPVKKADGSMDLQKWEAGIPGKEGTNWAGGVYPITVEYPNEYPSKPPKVKFPAGFYHPNVYPSGTICLSILNEDQDWRPAITLKQIVLGVQDLLDSPNPNSPAQEPAWRSFSRNKAEYDKKVLLQAKQYSK", "notes": "Ubc9 of Saccharomyces cerevisiae, UBC9 cloned into a pJG4-6-derived prey vector; also called E2 conjugating enzyme; J-042; source: yeast two-hybrid fusion, galactose-inducible promoter, in S. cerevisiae"}}, "test_in_all_cases": "two-hybrid; LexA bait and B42 activating domain prey, galactose-induced; liquid culture, quantitative beta-galactosidase activity of permeabilized cells with reporter pSH18034, wild-type cells (JC470)", "key": {"[1]": {"molecular_target": "Nse5-ts2-LexA (S. cerevisiae) (UniProt Q03718)"}, "Nse5-Y111H-LexA": {"molecular_target": "T1, Nse5-Y111H-LexA (S. cerevisiae, UniProt Q03718 1-556, Y111H)", "T1 construct": "Nse5 of Saccharomyces cerevisiae, point mutant; also called J-132; source: yeast two-hybrid fusion, galactose-inducible promoter, in S. cerevisiae", "T1 sequence (looked up)": "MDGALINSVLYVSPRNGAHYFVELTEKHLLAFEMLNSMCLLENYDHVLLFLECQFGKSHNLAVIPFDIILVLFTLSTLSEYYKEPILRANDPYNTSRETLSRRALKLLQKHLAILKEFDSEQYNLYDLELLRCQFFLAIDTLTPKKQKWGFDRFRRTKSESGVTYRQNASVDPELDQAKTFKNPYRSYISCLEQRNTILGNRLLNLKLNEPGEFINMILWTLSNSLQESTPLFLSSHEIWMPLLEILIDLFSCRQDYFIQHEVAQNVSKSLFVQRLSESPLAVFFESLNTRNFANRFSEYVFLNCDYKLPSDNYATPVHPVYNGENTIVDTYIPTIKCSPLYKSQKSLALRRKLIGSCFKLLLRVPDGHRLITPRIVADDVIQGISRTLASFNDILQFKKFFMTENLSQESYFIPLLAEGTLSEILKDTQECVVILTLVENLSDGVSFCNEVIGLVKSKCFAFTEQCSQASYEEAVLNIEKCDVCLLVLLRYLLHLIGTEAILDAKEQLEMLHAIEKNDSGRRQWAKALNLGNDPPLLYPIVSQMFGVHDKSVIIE", "details": "partners not purified"}, "Nse5-Y123H-LexA": {"molecular_target": "T2, Nse5-Y123H-LexA (S. cerevisiae, UniProt Q03718 1-556, Y123H)", "T2 construct": "Nse5 of Saccharomyces cerevisiae, point mutant; also called J-131; source: yeast two-hybrid fusion, galactose-inducible promoter, in S. cerevisiae", "T2 sequence (looked up)": "T1 sequence (looked up) with H111Y, Y123H", "details": "partners not purified"}, "Nse5-H319Y-LexA": {"molecular_target": "T3, Nse5-H319Y-LexA (S. cerevisiae, UniProt Q03718 1-556, H319Y)", "T3 construct": "Nse5 of Saccharomyces cerevisiae, point mutant; also called J-120; source: yeast two-hybrid fusion, galactose-inducible promoter, in S. cerevisiae", "T3 sequence (looked up)": "T1 sequence (looked up) with H111Y, H319Y", "details": "partners not purified"}, "Nse5-LexA (wild type)": {"molecular_target": "T4, Nse5-LexA (wild type) (S. cerevisiae, UniProt Q03718 1-556)", "T4 construct": "Nse5 of Saccharomyces cerevisiae, NSE5 gene cloned into a pEG202-derived bait plasmid; also called Non-Smc element 5; J-038; source: yeast two-hybrid fusion, galactose-inducible promoter, in S. cerevisiae", "T4 sequence (looked up)": "T1 sequence (looked up) with H111Y", "details": "partners not purified"}}, "note": "Changes are numbered by the printed parent chain."}
{"molecule": "Nse6-AD (natural protein)", "values": [{"measurement": "two-hybrid signal as percent of wild-type Nse5", "setting": "[1]", "value": 63, "unit": "%"}]}
{"molecule": "B1", "values": [{"measurement": "two-hybrid signal as percent of wild-type Nse5", "setting": "Nse5-Y111H-LexA", "value": 18, "unit": "%"}, {"measurement": "two-hybrid signal as percent of wild-type Nse5", "setting": "Nse5-Y123H-LexA", "value": 75, "unit": "%"}, {"measurement": "two-hybrid signal as percent of wild-type Nse5", "setting": "Nse5-H319Y-LexA", "value": 40, "unit": "%"}]}
{"molecule": "B2", "values": [{"measurement": "two-hybrid signal as fold of the interactions with Siz1 and Siz2", "setting": "Nse5-LexA (wild type)", "value": "~5", "unit": "fold"}]}
